Biological target: recombinant H03-IPSE (Schistosoma haematobium)
Test: SDS-PAGE under non-reducing and reducing conditions; 4-20% gradient gel, Coomassie stain and anti-His Western blot; protein purified by IMAC from serum-free culture supernatant; run non-reduced (NR) or reduced (R)

Question: How did the stoichiometry N turn out when recombinant H03-IPSE (natural protein) was run?
Answer: Its stoichiometry N is 2.

From article PMC5695104
